Test results from publication PMC2936782 (Cell, 2010).

Tests used:
[1] = target: PlexinC1-SemaPSI (Sema domain plus the first PSI domain) (human) (UniProt O60486); experiment: ITC
PlexinC1 (Homo sapiens) = PlexinC1 (Homo sapiens) (UniProt O60486); experiment: Scatchard analysis; settings: cited from earlier work
[2] = target: Sema7A, extracellular segment, glycan-trimmed (for crystallization) (human) (UniProt O75326); experiment: crystal structure
[3] = target: Sema7A, extracellular segment, glycan-trimmed (for crystallization) (human) (UniProt O75326); experiment: SEC
SEC + cross-linking = target: the molecule itself; experiment: SEC + cross-linking

Molecule: Sema7A, entire extracellular segment excluding the GPI anchor (from UniProt O75326 45-648) (ligand)
- Kd [1]: 290 nM
- dH [1]: -2 kcal/mol

Molecule: Sema7A (from UniProt O75326)
- Kd (PlexinC1 (Homo sapiens)): 2.1 nM

Molecule: Sema7A, extracellular segment, glycan-trimmed (for crystallization) (from UniProt O75326 45-648) (ligand)
- stoichiometry N [2]: 2
- stoichiometry N [3]: 2

B1: PlexinC1-ECD (entire extracellular segment) (receptor, human, UniProt O60486 35-944, looked up)
chain: ADEPVWRSEQAIGAIAASQEDGVFVASGSCLDQLDYSLEHSLSRLYRDQAGNCTEPVSLAPPARPRPGSSFSKLLLPYREGAAGLGGLLLTGWTFDRGACEVRPLGNLSRNSLRNGTEVVSCHPQGSTAGVVYRAGRNNRWYLAVAATYVLPEPETASRCNPAASDHDTAIALKDTEGRSLATQELGRLKLCEGAGSLHFVDAFLWNGSIYFPYYPYNYTSGAATGWPSMARIAQSTEVLFQGQASLDCGHGHPDGRRLLLSSSLVEALDVWAGVFSAAAGEGQERRSPTTTALCLFRMSEIQARAKRVSWDFKTAESHCKEGDQPERVQPIASSTLIHSDLTSVYGTVVMNRTVLFLGTGDGQLLKVILGENLTSNCPEVIYEIKEETPVFYKLVPDPVKNIYIYLTAGKEVRRIRVANCNKHKSCSECLTATDPHCGWCHSLQRCTFQGDCVHSENLENWLDISSGAKKCPKIQIIRSSKEKTTVTMVGSFSPRHSKCMVKNVDSSRELCQNKSQPNRTCTCSIPTRATYKDVSVVNVMFSFGSWNLSDRFNFTNCSSLKECPACVETGCAWCKSARRCIHPFTACDPSDYERNQEQCPVAVEKTSGGGRPKENKGNRTNQALQVFYIKSIEPQKVSTLGKSNVIVTGANFTRASNITMILKGTSTCDKDVIQVSHVLNDTHMKFSLPSSRKEMKDVCIQFDGGNCSSVGSLSYIALPHCSLIFPATTWISGGQNITMMGRNFDVIDNLIISHELKGNINVSEYCVATYCGFLAPSLKSSKVRTNVTVKLRVQDTYLDCGTLQYREDPRFTGYRVESEVDTELEVKIQKENDNFNISKKDIEITLFHGENGQLNCSFENITRNQDLTTILCKIKGIKTASTIANSSKKVRVKLGNLELYVEQESVPST
- binding result (SEC + cross-linking): binds
